Key:
Test in all cases: cryo-EM structure
[1] = biological target: T1, Cdc45 (S. cerevisiae, UniProt Q08032 1-650)
T1 sequence: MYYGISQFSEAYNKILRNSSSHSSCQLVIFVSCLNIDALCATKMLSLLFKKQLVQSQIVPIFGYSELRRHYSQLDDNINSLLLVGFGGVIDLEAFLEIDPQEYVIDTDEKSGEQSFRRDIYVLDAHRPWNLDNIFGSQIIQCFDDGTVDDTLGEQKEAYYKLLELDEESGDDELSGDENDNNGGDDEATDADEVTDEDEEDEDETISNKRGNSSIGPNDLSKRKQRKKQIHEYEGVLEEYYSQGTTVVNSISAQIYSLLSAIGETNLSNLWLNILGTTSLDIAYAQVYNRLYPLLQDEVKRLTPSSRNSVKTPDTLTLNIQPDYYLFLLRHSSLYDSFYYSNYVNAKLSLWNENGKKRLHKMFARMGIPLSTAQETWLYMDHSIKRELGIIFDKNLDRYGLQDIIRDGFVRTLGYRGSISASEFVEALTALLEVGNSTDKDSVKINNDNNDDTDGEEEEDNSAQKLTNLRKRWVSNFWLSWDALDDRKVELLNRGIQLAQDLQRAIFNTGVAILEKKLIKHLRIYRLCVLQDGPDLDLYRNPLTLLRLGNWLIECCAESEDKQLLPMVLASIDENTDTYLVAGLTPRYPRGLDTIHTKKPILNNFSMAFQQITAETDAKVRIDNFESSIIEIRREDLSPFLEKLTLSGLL

[2] = biological target: Mcm6 (S. cerevisiae, UniProt P53091 1-1017)
Chain of Mcm6 (P53091 whole entry): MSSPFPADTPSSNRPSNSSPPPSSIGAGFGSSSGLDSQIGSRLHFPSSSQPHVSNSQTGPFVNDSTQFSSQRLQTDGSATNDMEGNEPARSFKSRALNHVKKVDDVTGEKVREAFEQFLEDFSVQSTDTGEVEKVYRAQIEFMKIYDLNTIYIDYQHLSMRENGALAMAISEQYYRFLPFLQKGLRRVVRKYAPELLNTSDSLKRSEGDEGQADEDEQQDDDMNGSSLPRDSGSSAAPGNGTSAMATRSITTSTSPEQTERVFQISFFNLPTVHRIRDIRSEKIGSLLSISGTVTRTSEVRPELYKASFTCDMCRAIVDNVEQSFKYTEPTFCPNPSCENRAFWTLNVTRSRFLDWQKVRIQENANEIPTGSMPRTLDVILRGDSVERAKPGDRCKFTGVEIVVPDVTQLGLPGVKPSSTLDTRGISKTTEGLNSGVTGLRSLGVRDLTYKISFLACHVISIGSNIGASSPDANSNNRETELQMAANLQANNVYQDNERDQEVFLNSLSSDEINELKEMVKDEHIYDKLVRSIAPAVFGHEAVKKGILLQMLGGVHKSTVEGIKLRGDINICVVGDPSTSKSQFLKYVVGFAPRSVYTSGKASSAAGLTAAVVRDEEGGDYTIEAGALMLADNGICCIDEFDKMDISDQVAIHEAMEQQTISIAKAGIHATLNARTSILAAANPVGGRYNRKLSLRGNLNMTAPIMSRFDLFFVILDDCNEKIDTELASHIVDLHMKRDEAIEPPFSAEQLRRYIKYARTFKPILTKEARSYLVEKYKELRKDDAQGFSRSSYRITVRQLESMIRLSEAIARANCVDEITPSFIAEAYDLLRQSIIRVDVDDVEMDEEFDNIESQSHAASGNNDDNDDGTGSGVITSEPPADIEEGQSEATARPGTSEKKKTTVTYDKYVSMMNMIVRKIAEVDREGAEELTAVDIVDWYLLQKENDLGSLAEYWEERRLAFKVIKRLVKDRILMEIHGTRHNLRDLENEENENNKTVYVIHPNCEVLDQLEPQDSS

[3] = biological target: T2, GINS (S. cerevisiae, UniProt Q03406;Q12488;P40359;Q12146)
T2 sequence 1: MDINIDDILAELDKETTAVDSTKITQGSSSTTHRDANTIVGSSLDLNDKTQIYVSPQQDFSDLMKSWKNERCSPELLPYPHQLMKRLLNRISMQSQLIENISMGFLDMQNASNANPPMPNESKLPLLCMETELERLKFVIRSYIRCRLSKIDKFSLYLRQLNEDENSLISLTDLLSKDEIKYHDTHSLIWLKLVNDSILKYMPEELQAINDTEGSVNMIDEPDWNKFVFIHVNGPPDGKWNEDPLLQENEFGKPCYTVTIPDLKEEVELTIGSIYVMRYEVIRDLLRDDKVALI
T2 sequence 2: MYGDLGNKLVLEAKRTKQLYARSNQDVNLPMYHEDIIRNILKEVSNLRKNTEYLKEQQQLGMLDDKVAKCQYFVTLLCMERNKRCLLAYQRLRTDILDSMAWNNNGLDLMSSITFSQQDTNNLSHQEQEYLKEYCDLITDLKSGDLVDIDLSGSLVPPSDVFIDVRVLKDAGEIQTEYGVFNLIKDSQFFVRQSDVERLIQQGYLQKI
T2 sequence 3: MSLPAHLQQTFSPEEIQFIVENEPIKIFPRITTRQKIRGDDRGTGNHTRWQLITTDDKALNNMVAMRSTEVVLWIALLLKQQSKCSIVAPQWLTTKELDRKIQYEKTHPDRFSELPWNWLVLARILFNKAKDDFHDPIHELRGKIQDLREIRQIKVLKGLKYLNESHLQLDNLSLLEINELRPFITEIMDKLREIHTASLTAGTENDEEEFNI
T2 sequence 4: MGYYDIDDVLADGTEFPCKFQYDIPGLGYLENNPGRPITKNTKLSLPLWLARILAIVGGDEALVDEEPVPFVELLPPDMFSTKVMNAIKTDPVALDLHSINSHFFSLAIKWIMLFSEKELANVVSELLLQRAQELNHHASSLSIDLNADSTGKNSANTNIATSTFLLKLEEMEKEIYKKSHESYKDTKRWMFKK

[4] = biological target: T3, Mcm4 (S. cerevisiae, UniProt P30665 1-933)
T3 sequence: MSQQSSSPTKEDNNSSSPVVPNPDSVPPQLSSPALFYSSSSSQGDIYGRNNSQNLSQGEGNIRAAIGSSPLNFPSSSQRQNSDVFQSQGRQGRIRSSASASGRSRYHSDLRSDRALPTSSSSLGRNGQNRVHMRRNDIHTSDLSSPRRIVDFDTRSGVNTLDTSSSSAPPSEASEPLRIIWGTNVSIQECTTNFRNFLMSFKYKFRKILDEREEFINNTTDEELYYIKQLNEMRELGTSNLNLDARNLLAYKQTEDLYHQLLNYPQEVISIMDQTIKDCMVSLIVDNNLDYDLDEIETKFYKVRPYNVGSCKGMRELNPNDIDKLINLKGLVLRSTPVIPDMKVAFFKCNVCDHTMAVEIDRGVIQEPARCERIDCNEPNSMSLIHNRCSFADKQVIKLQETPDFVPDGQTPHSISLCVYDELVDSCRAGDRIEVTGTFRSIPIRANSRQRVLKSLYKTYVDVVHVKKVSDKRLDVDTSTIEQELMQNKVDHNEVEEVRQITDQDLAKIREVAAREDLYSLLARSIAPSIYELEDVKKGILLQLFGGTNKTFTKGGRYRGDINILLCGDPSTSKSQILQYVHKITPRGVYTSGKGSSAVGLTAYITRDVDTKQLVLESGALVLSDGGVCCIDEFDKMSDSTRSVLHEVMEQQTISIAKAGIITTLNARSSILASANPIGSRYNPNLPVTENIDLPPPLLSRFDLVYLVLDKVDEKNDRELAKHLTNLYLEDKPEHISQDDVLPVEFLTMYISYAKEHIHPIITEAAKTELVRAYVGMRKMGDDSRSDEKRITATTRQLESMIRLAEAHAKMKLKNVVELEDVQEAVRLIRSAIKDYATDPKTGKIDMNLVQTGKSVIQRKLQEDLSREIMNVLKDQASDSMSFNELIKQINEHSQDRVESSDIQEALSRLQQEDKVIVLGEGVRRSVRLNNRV

[5] = biological target: Mcm3 (S. cerevisiae, UniProt P24279 1-971)
Chain of Mcm3 (P24279 whole entry): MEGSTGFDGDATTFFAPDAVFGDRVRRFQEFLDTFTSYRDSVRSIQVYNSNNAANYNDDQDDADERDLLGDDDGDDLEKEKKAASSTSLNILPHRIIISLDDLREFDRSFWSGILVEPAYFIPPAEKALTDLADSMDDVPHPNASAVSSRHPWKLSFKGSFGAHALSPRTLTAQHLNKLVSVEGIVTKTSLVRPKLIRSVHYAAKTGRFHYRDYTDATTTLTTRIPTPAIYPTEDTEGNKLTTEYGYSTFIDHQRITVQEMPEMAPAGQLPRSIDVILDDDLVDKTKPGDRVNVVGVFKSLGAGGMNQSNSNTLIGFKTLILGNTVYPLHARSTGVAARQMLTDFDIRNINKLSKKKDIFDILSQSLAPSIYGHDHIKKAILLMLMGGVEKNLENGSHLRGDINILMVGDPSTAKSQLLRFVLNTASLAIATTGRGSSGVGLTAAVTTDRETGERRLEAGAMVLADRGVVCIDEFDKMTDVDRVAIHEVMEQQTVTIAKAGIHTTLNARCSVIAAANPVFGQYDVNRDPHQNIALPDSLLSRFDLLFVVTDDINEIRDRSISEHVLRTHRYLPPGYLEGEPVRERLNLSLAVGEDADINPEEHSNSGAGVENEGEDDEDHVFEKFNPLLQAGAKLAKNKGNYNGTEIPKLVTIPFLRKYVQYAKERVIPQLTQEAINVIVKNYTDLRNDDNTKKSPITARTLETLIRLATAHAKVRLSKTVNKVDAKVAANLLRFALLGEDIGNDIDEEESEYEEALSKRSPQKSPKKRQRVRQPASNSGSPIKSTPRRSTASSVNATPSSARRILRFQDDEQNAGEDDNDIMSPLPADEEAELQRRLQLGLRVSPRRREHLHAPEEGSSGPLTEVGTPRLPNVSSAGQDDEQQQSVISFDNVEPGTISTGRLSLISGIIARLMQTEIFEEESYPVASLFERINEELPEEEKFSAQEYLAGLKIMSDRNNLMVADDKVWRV

B1: Psf2 (natural protein)
chain: MSLPAHLQQTFSPEEIQFIVENEPIKIFPRITTRQKIRGDDRGTGNHTRWQLITTDDKALNNMVAMRSTEVVLWIALLLKQQSKCSIVAPQWLTTKELDRKIQYEKTHPDRFSELPWNWLVLARILFNKAKDDFHDPIHELRGKIQDLREIRQIKVLKGLKYLNESHLQLDNLSLLEINELRPFITEIMDKLREIHTASLTAGTENDEEEFNI
- binding result [1]: binds

B2: Mcm5 (natural protein)
chain: MSFDRPEIYSAPVLQGESPNDDDNTEIIKSFKNFILEFRLDSQFIYRDQLRNNILVKNYSLTVNMEHLIGYNEDIYKKLSDEPSDIIPLFETAITQVAKRISILSRAQSANNNDKDPENTSMDTDSLLLNSLPTFQLILNSNANQIPLRDLDSEHVSKIVRLSGIIISTSVLSSRATYLSIMCRNCRHTTSITINNFNSITGNTVSLPRSCLSTIESESSMANESNIGDESTKKNCGPDPYIIIHESSKFIDQQFLKLQEIPELVPVGEMPRNLTMTCDRYLTNKVIPGTRVTIVGIYSIYNSKNGAGSGRSGGGNGGSGVAIRTPYIKILGIQSDVETSSIWNSVTMFTEEEEEEFLQLSRNPKLYEILTNSIAPSIFGNEDIKKAIVCLLMGGSKKILPDGMRLRGDINVLLLGDPGTAKSQLLKFVEKVSPIAVYTSGKGSSAAGLTASVQRDPMTREFYLEGGAMVLADGGVVCIDEFDKMRDEDRVAIHEAMEQQTISIAKAGITTVLNSRTSVLAAANPIYGRYDDLKSPGDNIDFQTTILSRFDMIFIVKDDHNEERDISIANHVINIHTGNANAMQNQQEENGSEISIEKMKRYITYCRLKCAPRLSPQAAEKLSSNFVTIRKQLLINELESTERSSIPITIRQLEAIIRITESLAKLELSPIAQERHVDEAIRLFQASTMDAASQDPIGGLNQASGTSLSEIRRFEQELKRRLPIGWSTSYQTLRREFVDTHRFSQLALDKALYALEKHETIQLRHQGQNIYRSGV
- binding result [2]: binds
- binding result [3]: binds

B3: Psf1 (natural protein)
chain: MYGDLGNKLVLEAKRTKQLYARSNQDVNLPMYHEDIIRNILKEVSNLRKNTEYLKEQQQLGMLDDKVAKCQYFVTLLCMERNKRCLLAYQRLRTDILDSMAWNNNGLDLMSSITFSQQDTNNLSHQEQEYLKEYCDLITDLKSGDLVDIDLSGSLVPPSDVFIDVRVLKDAGEIQTEYGVFNLIKDSQFFVRQSDVERLIQQGYLQKI
- binding result [1]: binds

B4: Mcm7 (natural protein)
chain: MSAALPSIQLPVDYNNLFNEITDFLVTFKQDTLSSDATRNENEDENLDAENIEQHLLEKGPKYMAMLQKVANRELNSVIIDLDDILQYQNEKFLQGTQADDLVSAIQQNANHFTELFCRAIDNNMPLPTKEIDYKDDVLDVILNQRRLRNERMLSDRTNEIRSENLMDTTMDPPSSMNDALREVVEDETELFPPNLTRRYFLYFKPLSQNCARRYRKKAISSKPLSVRQIKGDFLGQLITVRGIITRVSDVKPAVEVIAYTCDQCGYEVFQEVNSRTFTPLSECTSEECSQNQTKGQLFMSTRASKFSAFQECKIQELSQQVPVGHIPRSLNIHVNGTLVRSLSPGDIVDVTGIFLPAPYTGFKALKAGLLTETYLEAQFVRQHKKKFASFSLTSDVEERVMELITSGDVYNRLAKSIAPEIYGNLDVKKALLLLLVGGVDKRVGDGMKIRGDINVCLMGDPGVAKSQLLKAICKISPRGVYTTGKGSSGVGLTAAVMKDPVTDEMILEGGALVLADNGICCIDEFDKMDESDRTAIHEVMEQQTISISKAGINTTLNARTSILAAANPLYGRYNPRLSPLDNINLPAALLSRFDILFLMLDIPSRDDDEKLAEHVTYVHMHNKQPDLDFTPVEPSKMREYIAYAKTKRPVMSEAVNDYVVQAYIRLRQDSKREMDSKFSFGQATPRTLLGIIRLSQALAKLRLADMVDIDDVEEALRLVRVSKESLYQETNKSKEDESPTTKIFTIIKKMLQETGKNTLSYENIVKTVRLRGFTMLQLSNCIQEYSYLNVWHLINEGNTLKFVDDGTMDTDQEDSLVSTPKLAPQTTASANVSAQDSDIDLQDA
- binding result [4]: binds
- binding result [5]: binds

Reference: article PMC4812828 (Nature structural & molecular biology, 2016)
